# Experimental data published in patent CN111704670A (MABWELL SHANGHAI BIOSCIENCE CO LTD; JIANGSU MABWELL NEW …, dated 2020).
# B1: 重组人源抗RANKL抗体IgG2型二硫键异构体IgG2-B型 (antibody, V domains shown)
# VH: EVQLLESGGGLVQPGGSLRLSCAASGFTFSSYAMSWVRQAPGKGLEWVSGITGSGGSTYYADSVKGRFTISRDNSKNTLYLQMNSLRAEDTAVYYCAKDPGTTVIMSWFDPWGQGTLVTVSS
# VL: EIVLTQSPGTLSLSPGERATLSCRASQSVRGRYLAWYQQKPGQAPRLLIYGASSRATGIPDRFSGSGTDFTLTISRLEPEDFAVFYCQQYGSSPRTFGQGTKVEIKR
# B2: 重组人源抗RANKL抗体IgG2型二硫键异构体IgG2-A型 (antibody, V domains shown)
# VH: B1 VH
# VL: B1 VL
# B3: 重组人源抗RANKL单克隆抗体IgG2型 (TK006) (antibody, V domains shown)
# VH: B1 VH
# VL: B1 VL
# Molecular target: T1, RANKL-兔Fc (rabbit, UniProt O14788 140-317 (human entry), limits assumed)
# T1 sequence (looked up): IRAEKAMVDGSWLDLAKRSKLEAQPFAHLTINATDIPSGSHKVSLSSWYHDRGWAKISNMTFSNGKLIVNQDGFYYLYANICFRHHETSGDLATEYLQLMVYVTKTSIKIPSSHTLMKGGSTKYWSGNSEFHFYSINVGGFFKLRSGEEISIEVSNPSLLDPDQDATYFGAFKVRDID
# Test: cell-based or functional assay
binder,measurement,value
B1,异构体生物活性 IC50,3 ng/mL
B2,异构体生物活性 IC50,2.89 ng/mL
B3,生物学活性量效曲线 IC50 (RAW264.7 TRAP/pNPP assay); 原液 lot 20131201,1.07 ng/ml
same,生物学活性量效曲线 IC50 (RAW264.7 TRAP/pNPP assay); 原液 lot 20140201,1.63 ng/ml
same,"生物学活性量效曲线 IC50 (RAW264.7 TRAP/pNPP assay); 工作参考品 lot 20140301, plate with Denosumab",1.11 ng/ml
same,"生物学活性量效曲线 IC50 (RAW264.7 TRAP/pNPP assay); 工作参考品 lot 20140301, plate with lot 20131201",1.33 ng/ml
same,"生物学活性量效曲线 IC50 (RAW264.7 TRAP/pNPP assay); 工作参考品 lot 20140301, plate with lot 20140201",1.34 ng/ml
